US20220048996A1 (F STAR BETA, published 2022)
Substitutions are numbered along the chain they refer to.

Assays:
hCD137-mFc-Avi [1] = biological target: T1, hCD137-mFc-Avi (human); assay: SPR, mAb^2 at 1 nM on CD137 against 1 µM on related receptors
T1 construct: Dimer; a biotinylated version was used where the text says so; also called human CD137-mFc-Avi; hCD137-mFc-Avi-Bio
Text: CD137 and OX40 belongs to the tumour necrosis factor receptor superfamily (TNFRSF) of cytokine receptors (Moran et al., 2013).
Briefly, flow cells on CM5 chips were immobilised with approx. 1000 RU of either human CD137-mFc-Avi (Table 3), OX40-mFc (Table 2), recombinant human TNFRSF1A-Fc, recombinant human TNFRSF1B-Fc, recombinant human GITR-Fc, recombinant human NGFR-Fc, recombinant human CD40-Fc or recombinant human DR6-Fc. Flow cell 1 was left for blank immobilisation. The five mAb² were diluted to 1 μM and 1 nM in 1×HBS-EP buffer (GE Healthcare, product code BR100188), allowed to flow over the chip for 3 min and then allowed to dissociate for 4 minutes. A 30-second injection of 10 mM glycine pH 1.5 was used for regeneration. […] Binding levels were determined at the end of the association phase and compared.

[2] = biological target: T2, mouse OX40 expressed on DO11.10 cells (DO11.10-mOX40) (mouse, UniProt P47741 20-272); assay: cell-based or functional assay
T2 sequence: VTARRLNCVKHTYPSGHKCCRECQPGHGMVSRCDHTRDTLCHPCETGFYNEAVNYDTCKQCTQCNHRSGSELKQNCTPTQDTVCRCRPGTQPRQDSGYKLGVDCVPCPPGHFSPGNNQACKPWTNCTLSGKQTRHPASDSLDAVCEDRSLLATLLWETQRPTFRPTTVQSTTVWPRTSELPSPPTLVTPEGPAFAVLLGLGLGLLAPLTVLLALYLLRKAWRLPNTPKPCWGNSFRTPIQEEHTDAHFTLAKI

[3] = biological target: T3, cynomolgus CD137 expressed on DO11.10 cells (DO11.10-cCD137) (cynomolgus monkey, UniProt Q07011 24-255 (human entry)); assay: flow cytometry on DO11.10 cells expressing the target
T3 chain: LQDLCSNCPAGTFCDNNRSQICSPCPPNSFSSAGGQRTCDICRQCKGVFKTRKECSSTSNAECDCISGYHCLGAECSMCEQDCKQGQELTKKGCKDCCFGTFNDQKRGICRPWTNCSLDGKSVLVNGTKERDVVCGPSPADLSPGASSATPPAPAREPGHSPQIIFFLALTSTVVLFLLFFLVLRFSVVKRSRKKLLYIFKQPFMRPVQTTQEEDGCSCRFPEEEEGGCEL
Method: (§1) 50 μl of the antibody dilutions were added to the wells containing cells (final volume 100 μl) and incubated at 4° C. for 1 hour. […] The plates were washed and resuspended in 100 μl of PBS containing DAPI (Biotium, cat no 40043) at 1 μg/ml. The plates were analysed using a Canto II flow cytometer (BD Bioscience) and the data analysed using FlowJo. Dead cells were identified by their higher fluorescence on the UV (405 nm/450/50) channel and excluded from analysis. […] The GMFI data was fit using log (agonist) vs response (three parameters) in Graph Pad Prism Software to generate EC₅₀ values.

[4] = biological target: T4, human CD137 expressed on DO11.10 cells (DO11.10-hCD137) (human, UniProt Q07011 24-255); assay: as above
T4 construct: also called CD137 on human T cells
Method: as §1

[5] = biological target: T5, mouse CD137 expressed on DO11.10 cells (DO11.10-mCD137) (mouse, UniProt P20334 24-256); assay: as above
T5 construct: also called CD137 on mouse T cells
Method: as §1, with “The binding affinity of the FS20m-232-91AA/Lob12.3 mAb² for cell-expressed mouse OX40 and CD137 was determined using flow cytometry. […] DO11.10-mOX40, DO11.10-mCD137, or HEK cell suspensions were prepared in PBS+2% BSA (Sigma, A7906) and seeded at 4×10⁶ cell/ml with 50 μl/well in V-bottomed 96-well plates (Costar, 3897). 50 μl” for “50 μl”, “volume 100 μl ) and incubated” for “volume 100 μl) and incubated”, “parameters) in GraphPad Prism Software” for “parameters) in Graph Pad Prism Software”

[6] = biological target: T2, mouse OX40 expressed on DO11.10 cells …; assay: as above
Method: as §1, with “The binding affinity of the FS20m-232-91AA/Lob12.3 mAb² for cell-expressed mouse OX40 and CD137 was determined using flow cytometry. […] DO11.10-mOX40, DO11.10-mCD137, or HEK cell suspensions were prepared in PBS+2% BSA (Sigma, A7906) and seeded at 4×10⁶ cell/ml with 50 μl/well in V-bottomed 96-well plates (Costar, 3897). 50 μl” for “50 μl”, “volume 100 μl ) and incubated” for “volume 100 μl) and incubated”, “parameters) in GraphPad Prism Software” for “parameters) in Graph Pad Prism Software”

[7] = biological target: T4, human CD137 expressed on DO11.10 cells …; assay: cell-based or functional assay
Target sequence in this assay (Q07011 24-255): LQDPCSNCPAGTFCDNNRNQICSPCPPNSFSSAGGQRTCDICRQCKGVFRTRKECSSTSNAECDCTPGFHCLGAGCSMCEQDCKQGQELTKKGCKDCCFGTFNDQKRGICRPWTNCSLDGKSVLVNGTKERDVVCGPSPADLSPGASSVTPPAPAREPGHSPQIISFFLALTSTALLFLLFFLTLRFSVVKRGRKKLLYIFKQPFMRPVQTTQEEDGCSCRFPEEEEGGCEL

[8] = biological target: T6, human OX40 expressed on DO11.10 cells (DO11.10-hOX40) (human, UniProt P43489 29-277); assay: cell-based or functional assay
T6 sequence: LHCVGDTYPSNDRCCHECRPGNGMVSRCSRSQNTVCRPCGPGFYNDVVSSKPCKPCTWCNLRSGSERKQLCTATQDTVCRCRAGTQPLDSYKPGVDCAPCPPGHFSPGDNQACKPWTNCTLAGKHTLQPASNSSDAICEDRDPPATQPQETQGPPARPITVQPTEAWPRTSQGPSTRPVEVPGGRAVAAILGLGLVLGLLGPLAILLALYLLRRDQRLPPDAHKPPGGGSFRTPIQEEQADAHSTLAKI

hCD137-mFc-Avi [9] = biological target: T1, hCD137-mFc-Avi; assay: SPR, antigen immobilised on CM5, mAb^2 at 1 nM and 1 µM
hOX40-mFc = biological target: T7, hOX40-mFc (human); assay: as above
T7 construct: Dimeric; also called human OX40-mFc
T7 chain: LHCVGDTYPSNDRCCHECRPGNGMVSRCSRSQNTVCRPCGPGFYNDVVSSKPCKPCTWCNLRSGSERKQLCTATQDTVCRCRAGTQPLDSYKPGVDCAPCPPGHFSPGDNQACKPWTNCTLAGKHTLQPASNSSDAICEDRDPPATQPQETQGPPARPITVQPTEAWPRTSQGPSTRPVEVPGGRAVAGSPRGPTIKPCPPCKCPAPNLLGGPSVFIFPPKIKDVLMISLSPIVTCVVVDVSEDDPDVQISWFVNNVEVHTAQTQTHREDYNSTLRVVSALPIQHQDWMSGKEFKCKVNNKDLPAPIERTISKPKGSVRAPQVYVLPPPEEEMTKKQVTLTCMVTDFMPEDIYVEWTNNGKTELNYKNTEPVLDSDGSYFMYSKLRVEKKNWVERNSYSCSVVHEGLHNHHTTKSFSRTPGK

[10] = biological target: T2, mouse OX40 expressed on DO11.10 cells …; assay: flow cytometry, fluorescently-labelled antibody on DO11.10-mOX40

T1 sequence (chain, as listed by the source limits assumed): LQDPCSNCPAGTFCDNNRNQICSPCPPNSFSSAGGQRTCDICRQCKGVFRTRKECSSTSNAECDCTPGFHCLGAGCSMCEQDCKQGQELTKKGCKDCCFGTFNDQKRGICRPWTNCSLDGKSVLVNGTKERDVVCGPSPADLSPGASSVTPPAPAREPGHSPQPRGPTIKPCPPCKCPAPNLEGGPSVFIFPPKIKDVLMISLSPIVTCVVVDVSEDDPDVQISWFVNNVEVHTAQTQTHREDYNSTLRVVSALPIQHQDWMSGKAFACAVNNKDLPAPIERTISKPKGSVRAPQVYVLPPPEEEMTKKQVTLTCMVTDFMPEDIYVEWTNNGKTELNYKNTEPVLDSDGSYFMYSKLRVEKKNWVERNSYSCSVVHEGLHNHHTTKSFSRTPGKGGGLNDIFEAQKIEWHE
T5 sequence (P20334 24-256): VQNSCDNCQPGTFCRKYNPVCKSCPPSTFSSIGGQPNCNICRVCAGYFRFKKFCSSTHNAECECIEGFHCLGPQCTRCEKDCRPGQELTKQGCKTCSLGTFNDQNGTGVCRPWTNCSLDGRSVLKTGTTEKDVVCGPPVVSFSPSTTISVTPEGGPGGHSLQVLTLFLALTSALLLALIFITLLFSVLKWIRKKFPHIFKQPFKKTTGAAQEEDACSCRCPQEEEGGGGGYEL

B1: FS20-22-49AA/FS30-10 (bispecific antibody, V domains shown)
VH: EVQLLESGGGLVQPGGSLRLSCAASGFTFSSYDMSWVRQAPGKGLEWVSDIDPTGSKTDYADSVKGRFTISRDNSKNTLYLQMNSLRAEDTAVYYCARDLMVYGFDYWGQGTLVTVSS
VL: EIVLTQSPGTLSLSPGERATLSCRASQSVSSSYLAWYQQKPGQAPRLLIYGASSRATGIPDRFSGSGSGTDFTLTISRLEPEDFAVYYCQQSYSYPVTFGQGTKVEIKR
notes: Parent mAb^2; derived by reversing the stated change
Question: For B1, which “specificity for CD137 over TNFRSF1A, TNFRSF1B, GITR, NGFR and CD40 (fold)” value (hCD137-mFc-Avi [1]) is on record?
Answer: ~1000 fold

B2: FS20m-232-91AA/4420 (antibody, human IgG1, kappa, L234A L235A)
heavy: EVKLDETGGGLVQPGRPMKLSCVASGFTFSDYWMNWVRQSPEKGLEWVAQIRNKPYNYETYYSDSVKGRFTISRDDSKSSVYLQMNNLRVEDMGIYYCTGSYYGMDYWGQGTSVTVSSASTKGPSVFPLAPSSKSTSGGTAALGCLVKDYFPEPVTVSWNSGALTSGVHTFPAVLQSSGLYSLSSVVTVPSSSLGTQTYICNVNHKPSNTKVDKKVEPKSCDKTHTCPPCPAPEAAGGPSVFLFPPKPKDTLMISRTPEVTCVVVDVSHEDPEVKFNWYVDGVEVHNAKTKPREEQYNSTYRVVSVLTVLHQDWLNGKEYKCKVSNKALPAPIEKTISKAKGQPREPQVYTLPPSRDELFDPMYYYNQVSLTCLVKGFYPSDIAVEWESNGEPLWDYKTTPPVLDSDGSFFLYSKLTVWRDRWEDGNVFSCSVMHEALHNHYTQKSLSLSPGK
light: DVVMTQTPLSLPVSLGDQASISCRSSQSLVHSNGNTYLRWYLQKPGQSPKVLIYKVSNRFSGVPDRFSGSGSGTDFTLKISRVEAEDLGVYFCSQSTHVPWTFGGGTKLEIKRTVAAPSVFIFPPSDEQLKSGTASVVCLLNNFYPREAKVQWKVDNALQSGNSQESVTEQDSKDSTYSLSSTLTLSKADYEKHKVYACEVTHQGLSSPVTKSFNRGEC
Question: Which “mouse pan-T cell activation assay, mIL-2 release EC50, crosslinked” value [2] does the source give for B2 here?
Answer: 0.257 nM

B3: G1/4420 (antibody, human IgG1, kappa)
heavy: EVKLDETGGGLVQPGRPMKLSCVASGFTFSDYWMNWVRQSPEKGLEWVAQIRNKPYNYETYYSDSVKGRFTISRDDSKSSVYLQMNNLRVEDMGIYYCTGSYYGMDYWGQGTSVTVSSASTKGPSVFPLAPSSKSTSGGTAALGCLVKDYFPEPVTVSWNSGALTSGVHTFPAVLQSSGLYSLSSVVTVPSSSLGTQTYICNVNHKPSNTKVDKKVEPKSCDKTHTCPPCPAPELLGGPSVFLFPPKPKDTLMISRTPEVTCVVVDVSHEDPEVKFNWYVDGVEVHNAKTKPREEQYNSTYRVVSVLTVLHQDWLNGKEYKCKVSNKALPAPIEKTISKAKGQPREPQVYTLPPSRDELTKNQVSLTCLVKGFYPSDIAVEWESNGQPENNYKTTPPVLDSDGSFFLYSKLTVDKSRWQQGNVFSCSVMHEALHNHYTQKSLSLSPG
light: B2 light
notes: also called anti-FITC antibody 4420 in IgG1 format; isotype control
Question: Which results are given for B3?
Answer: binding result [3]: no binding; binding result [4]: no binding; binding result [5]: no binding; binding result [6]: no binding

B4: FS20-22-49AA/FS30-35 (bispecific antibody, V domains shown)
VH: EVQLLESGGGLVQPGGSLRLSCAASGFTFSAYNIHWVRQAPGKGLEWVSDISPYGGATNYADSVKGRFTISRDNSKNTLYLQMNSLRAEDTAVYYCARNLYELSAYSYGMDYWGQGTLVTVSS
VL: EIVLTQSPGTLSLSPGERATLSCRASQSVSSSYLAWYQQKPGQAPRLLIYGASSRATGIPDRFSGSGSGTDFTLTISRLEPEDFAVYYCQQYYYSSPITFGQGTKVEIKR
notes: as for B1
Question: B4 was tested. Which “specificity for CD137 over TNFRSF1A, TNFRSF1B, GITR, NGFR and CD40 (fold)” value (hCD137-mFc-Avi [1]) did it give?
Answer: ~1000 fold

B5: FS20-22-49AA/FS30-35-14 (bispecific antibody, human IgG1, kappa, L234A L235A, V domains shown)
VH: B4 VH with M110A
VL: B4 VL
notes: IgG1 with LALA; also called OX40/CD137 mAb^2
Question: How did the “EC50 of mIL-2 release, DO11.10-hCD137 assay, crosslinked” value [7] turn out when B5 was run?
Answer: 5.1 nM

Question: What about the “Emax of mIL-2 release, DO11.10-hCD137 assay, crosslinked” value [7] of the same binder?
Answer: 19800 pg/mL

Question: What about the “SEA assay (PBMC), hIL-2 max response, crosslinked” value [8] of the same binder?
Answer: 32200 pg/mL

Question: What about the “SEA assay (PBMC), hIL-2 max response, no crosslinker” value [8] of the same binder?
Answer: 32400 pg/mL

Question: And the “SEA assay (PBMC), hIL-2 release EC50, crosslinked” value [8]?
Answer: 0.14 nM

Question: What about the “SEA assay (PBMC), hIL-2 release EC50, no crosslinker” value [8] of the same binder?
Answer: 0.09 nM

Question: Does B5 bind (hCD137-mFc-Avi [9])?
Answer: binds

Question: Does B5 bind (hOX40-mFc)?
Answer: binds

B6: G1/OX86 (antibody, human IgG1, kappa, V domains shown)
VH: QVQLKESGPGLVQPSQTLSLTCTVSGFSLTGYNLHWVRQPPGKGLEWMGRMRYDGDIYYNSVLKSRLSISRDTSKNQVFLKMNSLQTDDTAIYYCTRDGRGDSFDYWGQGVMVTVSS
VL: DIVMTQGALPNPVPSGESASITCRSSQSLVYKDGQTYLNWFLQRPGQSPQLLTYWMSTRASGVSDRFSGSGSGTYFTLKISRVRAEDAGVYYCQQVREYPFTFGSGTKLEIKR
notes: also called G1/0X86; anti-mouse OX40 mAb OX86 in a human IgG1 backbone
Question: Does B6 bind [5]?
Answer: no binding

Question: And the EC50 [6]?
Answer: 0.538 nM

B7: antibody OX86 (Biolegend cat no 119408) (antibody, V domains shown)
VH: B6 VH with I57T
VL: DIVMTQGALPNPVPSGESASITCRSSQSLVYKDGQTYLNWFLQRPGQSPQLLTYWMSTRASGVSDRFSGSGSGTYFTLKISRVRAEDAGVYYCQQVREYPFTFGSGTKLEIK
Question: With B7 as the binder, how does the “fluorescence over non-transduced cells (fold)” value [10] read?
Answer: ≥ 10 fold
